Laboratory results taken from US20210388105A1 (ELPISCIENCE SUZHOU BIOPHARMA, published 2021).

T1: human CD39 (full length, on cells) (human, UniProt P49961 1-510)
T1 construct: Recombinant on CHOK1-hCD39 cells or natural on SK-MEL-28, SK-MEL-5 and MOLP-8 cells; the cell line is named under assay; also called hCD39; ENTPD1
T1 sequence: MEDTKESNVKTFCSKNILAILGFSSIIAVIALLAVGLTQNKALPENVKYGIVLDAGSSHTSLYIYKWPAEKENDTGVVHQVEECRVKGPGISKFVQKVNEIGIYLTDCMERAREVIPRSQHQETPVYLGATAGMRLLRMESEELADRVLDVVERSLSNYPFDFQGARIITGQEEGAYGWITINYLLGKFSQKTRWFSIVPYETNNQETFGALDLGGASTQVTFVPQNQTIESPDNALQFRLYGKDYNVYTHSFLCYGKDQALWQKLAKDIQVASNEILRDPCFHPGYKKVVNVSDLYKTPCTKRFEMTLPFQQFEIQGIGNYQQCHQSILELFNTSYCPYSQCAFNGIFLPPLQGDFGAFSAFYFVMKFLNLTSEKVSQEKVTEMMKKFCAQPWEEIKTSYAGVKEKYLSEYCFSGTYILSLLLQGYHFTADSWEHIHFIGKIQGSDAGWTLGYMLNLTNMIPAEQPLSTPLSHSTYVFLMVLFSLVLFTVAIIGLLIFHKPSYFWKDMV

T2: mouse CD39 (full length, on CHOK1-mCD39 cells) (mouse, UniProt P55772 1-510)
T2 construct: whole, on cells
T2 sequence (looked up): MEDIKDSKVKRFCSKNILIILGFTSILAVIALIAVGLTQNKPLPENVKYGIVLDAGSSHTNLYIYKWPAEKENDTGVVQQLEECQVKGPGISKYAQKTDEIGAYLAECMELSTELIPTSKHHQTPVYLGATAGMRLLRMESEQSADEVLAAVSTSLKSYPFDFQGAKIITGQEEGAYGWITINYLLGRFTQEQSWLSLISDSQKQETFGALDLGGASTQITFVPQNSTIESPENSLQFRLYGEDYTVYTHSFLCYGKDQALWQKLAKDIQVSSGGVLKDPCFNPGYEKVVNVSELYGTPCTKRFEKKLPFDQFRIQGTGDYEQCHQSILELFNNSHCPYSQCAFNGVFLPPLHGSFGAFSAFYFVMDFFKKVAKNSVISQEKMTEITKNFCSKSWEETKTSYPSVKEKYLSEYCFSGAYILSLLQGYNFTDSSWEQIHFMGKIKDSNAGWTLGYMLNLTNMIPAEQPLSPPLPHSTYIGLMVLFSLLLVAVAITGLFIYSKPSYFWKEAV

T3: cynomolgus CD39 (full length, on CHOK1-cynoCD39 cells) (cynomolgus monkey, UniProt A0A7N9DGH8 1-510)
T3 construct: whole, on cells; also called cCD39
T3 sequence: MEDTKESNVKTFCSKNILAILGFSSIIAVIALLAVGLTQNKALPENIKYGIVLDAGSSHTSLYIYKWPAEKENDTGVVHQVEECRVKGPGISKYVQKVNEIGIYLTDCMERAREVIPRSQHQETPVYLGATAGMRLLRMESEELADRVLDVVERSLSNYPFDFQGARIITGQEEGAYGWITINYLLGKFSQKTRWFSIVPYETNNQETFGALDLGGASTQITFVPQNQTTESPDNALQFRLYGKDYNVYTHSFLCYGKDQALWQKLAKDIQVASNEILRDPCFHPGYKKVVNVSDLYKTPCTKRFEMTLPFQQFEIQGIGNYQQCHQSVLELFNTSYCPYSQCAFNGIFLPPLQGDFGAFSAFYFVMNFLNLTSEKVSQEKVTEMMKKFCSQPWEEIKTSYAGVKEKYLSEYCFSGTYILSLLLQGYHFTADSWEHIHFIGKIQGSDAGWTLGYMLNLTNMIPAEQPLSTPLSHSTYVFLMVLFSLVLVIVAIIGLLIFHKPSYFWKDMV

T4: human CD39 (protein; form not stated) (human, UniProt P49961 38-478, limits assumed)
T4 construct: also called ENTPD1; ENTPDase 1
T4 sequence: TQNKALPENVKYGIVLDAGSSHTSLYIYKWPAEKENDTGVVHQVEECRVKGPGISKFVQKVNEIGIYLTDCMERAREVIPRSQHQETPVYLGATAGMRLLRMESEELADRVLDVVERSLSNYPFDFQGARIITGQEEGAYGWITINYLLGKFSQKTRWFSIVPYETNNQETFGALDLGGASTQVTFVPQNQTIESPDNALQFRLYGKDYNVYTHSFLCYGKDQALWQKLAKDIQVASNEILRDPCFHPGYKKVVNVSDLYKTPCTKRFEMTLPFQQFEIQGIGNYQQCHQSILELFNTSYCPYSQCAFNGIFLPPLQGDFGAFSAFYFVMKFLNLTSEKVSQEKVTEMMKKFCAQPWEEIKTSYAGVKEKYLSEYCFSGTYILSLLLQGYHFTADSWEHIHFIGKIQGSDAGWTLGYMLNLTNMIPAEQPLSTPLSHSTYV


How the values were obtained:
[1] = biological target: T1, human CD39 (full length, on cells); experiment: FACS, CHOK1-hCD39 cells
Source text: (§1) FACS were used to determine binding of the antibodies to cell lines expressing CD39 naturally (SK-MEL-28) or recombinantly (CHOK1-hCD39, CHOK1-cynoCD39, and CHOK1-mCD39), or with cells lacking CD39 expression (CHOK1-blank) as a negative control.
(§2) CHOK1-hCD39, CHOK1-cCD39, CHOK1-mCD39 and CHOK1-blank cells were maintained in culture medium according to ATCC procedure. Cells were collected and re-suspended in blocking buffer at a density of 3×10⁶ cells/ml. Cells were transferred to 96 well FACS plates at 100 μl/well (3×10⁵ cells/well), the plates were centrifuged and washed twice with FACS buffer (PBS, 1% FBS, 0.05% Tween-20). 4-folds serial dilution of anti-CD39 antibodies were prepared in FACS buffer starting from 30 μg/ml. Reference antibody 9-8B and mouse/human control IgG were used as positive and negative controls, respectively. Cells were re-suspended in 100 μL/well diluted antibodies, and the plates were incubated at 4° C. for 60 min. […] The plates were washed with FACS buffer, and cells were re-suspended in 100 μL/well of PBS. Cells were then analyzed with FACSVerse™ and mean fluorescence intensity were determined. Full binding curves were generated on the CD39 expressing cells by testing a range of antibody concentrations. Apparent affinity was determined for each antibody using Prism software.

[2] = biological target: T1, human CD39 (full length, on cells); experiment: cell-based or functional assay
[3] = biological target: T2, mouse CD39 (full length, on CHOK1-mCD39 …); experiment: FACS, CHOK1-mCD39 cells
Source text: as §1, §2

[4] = biological target: T1, human CD39 (full length, on cells); experiment: FACS, SK-MEL-28 cells
Experimental: as §1
(§3) Similarly, human CD39 expressing cells SK-MEL-5, SK-MEL-28 or MOLP-8, were incubated with a gradient concentration of anti-CD39 antibodies for 30 minutes at 4° C. Cells were washed 3 times using FACS buffer and next incubated with fluorescence labelled secondary antibody (goat-anti-mouse IgG or goat anti-human IgG) for 30 minutes at 4° C. Cells were washed 3 times and then re-suspended in FACS buffer and analyzed by flow cytometry analysis on BD Celesta. Data plotted and analyzed using GraphPad Prism 8.02.

[5] = biological target: T3, cynomolgus CD39 (full length, on …); experiment: FACS, CHOK1-cynoCD39 cells
Source text: as §1, §2

[6] = biological target: T4, human CD39 (protein; form not stated); experiment: Octet (BLI), antibody on sensor, CD39 in solution
Experimental: Briefly, the antibodies were coupled on sensors and then the sensors were dipped into CD39 gradients (start at 200 nM, with 2-fold dilution and totally 8 doses). Their binding responses were measured in real-time and results were fit globally.

[7] = biological target: T1, human CD39 (full length, on cells); experiment: FACS on MOLP-8 cells, MFI
Experimental: as §3
The binding affinity of the humanized antibodies for c14 was determined by FACS using MOLP-8 cells expressing human CD39, using similar methods as described in Example 3.2.

| Binder | EC50 [1] [nM] | SK-MEL-28 cell based ATPase inhibition % at 10 nM [2] [%] | EC50 [4] [nM] | EC50 [5] [nM] | binding result [7] | binding result [3] | also measured |
| --- | --- | --- | --- | --- | --- | --- | --- |
| hu14.H1L2 (antibody, V domains shown, humanized c14) VH: EVQLVESGGGLVKPGGSLRLSCAASGFTFSKYWMNWVRQAPGKGLEWVGEIRLKSNKYGTHYAESVKGRFTISRDDSKNTLYLQMNSLKTEDTAVYYCTTQLDLYWFFDVWGQGTTVTVSS VL: EIVLTQSPATLSLSPGERATLSCRASQSISDYLHWYQQKPGQSPRLLIYYASQSISGIPARFSGSGSGTDFTLTISSLEPEDFAVYFCQNGHSLPLTFGGGTKLEIK |  |  |  |  |  |  | Kd [6]: 0.839 nM; koff [6]: 0.000326 s⁻¹; kon [6]: 389000 M⁻¹ s⁻¹ |
| hu14.H2L4 (antibody, V domains shown, humanized c14) VH: EVQLVESGGGLVKPGGSLRLSCAASGFTFSKYWMNWVRQSPGKGLEWVGEIRLKSNKYGTHYAESVKGRFTISRDDSKNTLYLQMNSLKTEDTAVYYCTTQLDLYWFFDVWGQGTTVTVSS VL: EIVMTQSPATLSVSPGERVTLSCRASQSISDYLHWYQQKPGQSPRLLIYYASQSISGIPARFSGSGSGTDFTLTISSVEPEDFAVYFCQNGHSLPLTFGGGTKLEIK |  |  |  |  | binds |  |  |
| hu14.H1L3 (antibody, V domains shown, humanized c14) VH: EVQLVESGGGLVKPGGSLRLSCAASGFTFSKYWMNWVRQAPGKGLEWVGEIRLKSNKYGTHYAESVKGRFTISRDDSKNTLYLQMNSLKTEDTAVYYCTTQLDLYWFFDVWGQGTTVTVSS VL: EIVLTQSPATLSVSPGERATLSCRASQSISDYLHWYQQKPGQSPRLLIYYASQSISGIPARFSGSGSGTDFTLTISSVEPEDFAVYFCQNGHSLPLTFGGGTKLEIK |  |  |  |  | binds |  |  |
| hu14.H2L1 (antibody, V domains shown, humanized c14) VH: EVQLVESGGGLVKPGGSLRLSCAASGFTFSKYWMNWVRQSPGKGLEWVGEIRLKSNKYGTHYAESVKGRFTISRDDSKNTLYLQMNSLKTEDTAVYYCTTQLDLYWFFDVWGQGTTVTVSS VL: EIVLTQSPATLSLSPGERATLSCRASQSISDYLHWYQQKPGQAPRLLIYYASQSISGIPARFSGSGSGTDFTLTISSLEPEDFAVYYCQNGHSLPLTFGGGTKLEIK |  |  |  |  | binds |  |  |
| mAb35 (antibody, V domains shown, mouse hybridoma antibody) VH: EVRLQQSGAELVKPGASVKLSCTASGFNIEDTYVHWMKQRPEQGLEWIGRIDPAIDNSKYDPKFQGKATITAVSSSNTAYLQLSSLTSEDTAVYYCALYDGYNVYAMDYWGQGTSVTVSS VL: DIVMTQAAFSNPVTLGTSASISCRSSKNLLHSNGITYLYWYLQRPGQSPQLLIYRASTLASGVPNRFSGSESGTDFTLRISRVEAEDVGVYYCAQLLELPHTFGGGTKLEIK | 5.2 | 56 | 1.8 | 5.3 |  | no binding (tested: 30 µg/ml highest concentration) |  |

Now from value to binder, other results behind:

| EC50 [1] [nM] | SK-MEL-28 cell based ATPase inhibition % at 10 nM [2] [%] | EC50 [4] [nM] | EC50 [5] [nM] | binding result [7] | Binder | binding result [3] | also measured |
| --- | --- | --- | --- | --- | --- | --- | --- |
| 4.4 | 72 | 4.7 | 3.1 |  | mAb34 (antibody, V domains shown, mouse hybridoma antibody) VH: EIQVQQSGPELVKPGASVKVSCKASGYSFTDYNMYWVKQSHGKSLEWIGFIDPYNGYTSYNQKFKGKATLTIDKSSSTAFMHLNSLTSEDSAVYYCAIYGYDDAYYFDYWGQGTTLTVSS VL: QIVLTQSPAIMSASPGEKVTITCSATSSVSYMHWFRQKPGTSPKLWIYSTSNLASGVPARFSGSGSGTSYSLTISRMAAEDAATYYCQQRITYPFTFGSGTKLEIT | no binding (tested: 30 µg/ml highest concentration) |  |
|  |  |  |  | binds | hu14.H2L3 (antibody, V domains shown, humanized c14) VH: EVQLVESGGGLVKPGGSLRLSCAASGFTFSKYWMNWVRQSPGKGLEWVGEIRLKSNKYGTHYAESVKGRFTISRDDSKNTLYLQMNSLKTEDTAVYYCTTQLDLYWFFDVWGQGTTVTVSS VL: EIVLTQSPATLSVSPGERATLSCRASQSISDYLHWYQQKPGQSPRLLIYYASQSISGIPARFSGSGSGTDFTLTISSVEPEDFAVYFCQNGHSLPLTFGGGTKLEIK |  |  |
|  |  |  |  | binds | hu14.H1L4 (antibody, V domains shown, humanized c14) VH: EVQLVESGGGLVKPGGSLRLSCAASGFTFSKYWMNWVRQAPGKGLEWVGEIRLKSNKYGTHYAESVKGRFTISRDDSKNTLYLQMNSLKTEDTAVYYCTTQLDLYWFFDVWGQGTTVTVSS VL: EIVMTQSPATLSVSPGERVTLSCRASQSISDYLHWYQQKPGQSPRLLIYYASQSISGIPARFSGSGSGTDFTLTISSVEPEDFAVYFCQNGHSLPLTFGGGTKLEIK |  |  |
| 30 | 43 | 11 | 21 |  | mAb13 (antibody, V domains shown, mouse hybridoma antibody) VH: QIQLVQSGPELKKPGETVKISCKASGYTFTNYGMNWVKQAPGKGLRWMGLINTYTGEPTYADDFKDRFAFSLETSASTAFLQINNLKDEDMATYFCARKGIYYDYVWFFDVWGAGTTVTVSS VL: DIQMTQSPSSLSTSLGGKVSITCKASQDINRYIAWYQHKPGKGPRLLIHYTSTLLPGIPSRFSGSGSGRDYSFSISNLEPEDIATYFCLQYSNLLTFGGGTKLEIK | no binding (tested: 30 µg/ml highest concentration) |  |
